A value given as a limit tells only on which side of the number the result lay.

In data set [1] the target is human ornithine decarboxylase N125K/M140K double mutant (human) (UniProt P11926).
The target in data set [2] is human antizyme inhibitor K125N/K140M double mutant (human) (UniProt O14977). Briefly: AUC; sedimentation velocity, 42,000 rpm; ODC or AZI fixed at 0.3 mg/mL with AZ at 0.015, 0.03, 0.06 or 0.09 mg/mL; data globally fitted with SEDPHAT to the A+B<->AB hetero-association model.
The target of data set [3] is human ornithine decarboxylase M140K mutant (human) (UniProt P11926). The description is as above.
Data set [4] addresses human ornithine decarboxylase N125K mutant (human) (UniProt P11926). The description is as above.
Data set [5] has as its target human antizyme inhibitor K125N mutant (human) (UniProt O14977). The description is as above.
In data set [6] the target is human antizyme inhibitor K140M mutant (human) (UniProt O14977). The description is as above.
The target of data set [7] is human ornithine decarboxylase, wild type (human) (UniProt P11926). Described as above.
In data set [8] the target is human ornithine decarboxylase N125K/M140K double mutant (human) (UniProt P11926). The data set is described as above.
Data set [9] concerns the target human antizyme inhibitor, wild type (human) (UniProt O14977). The description is as above.
Data set [10] addresses human ornithine decarboxylase M140K mutant (human) (UniProt P11926).
Data set [11] concerns the target human ornithine decarboxylase N125K mutant (human) (UniProt P11926).
The target in data set [12] is human ornithine decarboxylase S135N mutant (human) (UniProt P11926).
Data set [13] addresses human ornithine decarboxylase N126V mutant (human) (UniProt P11926).
The target in data set [14] is human ornithine decarboxylase, wild type (human) (UniProt P11926).
Data set [15] has as its target human ornithine decarboxylase N125K/M140K double mutant (human) (UniProt P11926). The source holds these as a separate data set.
The target of data set [16] is human ornithine decarboxylase F133C mutant (human) (UniProt P11926).
A further data set deals with human antizyme (human) (UniProt P54368).
Data set [17] concerns the molecule itself. Briefly: AUC; sedimentation velocity, 42,000 rpm; continuous size distribution (SEDFIT) of ODC or AZI without AZ.

human antizyme inhibitor K125N mutant (human), sequence (O14977 whole entry K125N): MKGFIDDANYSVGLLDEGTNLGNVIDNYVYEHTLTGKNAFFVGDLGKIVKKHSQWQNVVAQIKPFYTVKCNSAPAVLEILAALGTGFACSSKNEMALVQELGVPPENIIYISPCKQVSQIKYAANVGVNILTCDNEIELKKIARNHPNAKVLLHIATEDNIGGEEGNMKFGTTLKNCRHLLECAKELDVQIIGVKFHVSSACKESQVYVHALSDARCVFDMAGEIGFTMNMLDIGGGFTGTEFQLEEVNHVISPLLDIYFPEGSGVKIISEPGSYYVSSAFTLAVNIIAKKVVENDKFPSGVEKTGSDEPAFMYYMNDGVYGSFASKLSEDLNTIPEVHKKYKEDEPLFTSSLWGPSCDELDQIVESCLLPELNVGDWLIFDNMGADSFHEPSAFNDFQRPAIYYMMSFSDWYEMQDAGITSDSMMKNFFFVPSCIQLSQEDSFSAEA
human antizyme inhibitor K140M mutant (human), sequence (O14977 whole entry K140M): as the sequence (O14977 whole entry K125N) above, with N125K, K140M counted along it
human antizyme inhibitor K125N/K140M double mutant (human), sequence (O14977 whole entry K125N/K140M): as the sequence (O14977 whole entry K125N) above, with K140M counted along it
human antizyme inhibitor, wild type (human), sequence (O14977 whole entry): as the sequence (O14977 whole entry K125N) above, with N125K counted along it

For the molecule “human antizyme (from UniProt P54368 1-228) (natural protein)”, the residual enzyme activity of AZ-inhibited ODC N125K/M140K on rescue by high concentrations of AZI (AZ:ODC monomer ratio 4.0) in data set [1] came to 20%. The Kd worked out at 180 nM in data set [2]; 140 nM in data set [3]; 100 nM in [4]; 160 nM in data set [5]; 110 nM in data set [6]; 210 nM in data set [7]. The equilibrium dissociation constant (Kd) in data set [8] and in [9] was 20 nM in each case. For the same molecule, the IC50,AZ: concentration of AZ required for 50% inhibition of ODC enzyme activity (ODC 20 µg/mL) in data set [10] is 130 nM; in data set [11], 100 nM; in data set [12] it was 490 nM; in [13], 440 nM; in data set [14], 250 nM; in data set [15], 80 nM. The molecule also had an IC50,AZ: concentration of AZ required for 50% inhibition of ODC enzyme activity (ODC 20 µg/mL) in data set [16] of 450 nM.
Turning to “human antizyme inhibitor, wild type (from UniProt O14977 1-448) (natural protein)”, in the data set with human antizyme (human), the residual enzyme activity of AZ-inhibited ODC WT (AZ:ODC monomer ratio 4.0) with increasing AZI concentrations was over 90%.

B1: human ornithine decarboxylase, wild type (enzyme, UniProt P11926 1-461, looked up)
chain: MNNFGNEEFDCHFLDEGFTAKDILDQKINEVSSSDDKDAFYVADLGDILKKHLRWLKALPRVTPFYAVKCNDSKAIVKTLAATGTGFDCASKTEIQLVQSLGVPPERIIYANPCKQVSQIKYAANNGVQMMTFDSEVELMKVARAHPKAKLVLRIATDDSKAVCRLSVKFGATLRTSRLLLERAKELNIDVVGVSFHVGSGCTDPETFVQAISDARCVFDMGAEVGFSMYLLDIGGGFPGSEDVKLKFEEITGVINPALDKYFPSDSGVRIIAEPGRYYVASAFTLAVNIIAKKIVLKEQTGSDDEDESSEQTFMYYVNDGVYGSFNCILYDHAHVKPLLQKRPKPDEKYYSSSIWGPTCDGLDRIVERCDLPEMHVGDWMLFENMGAYTVAAASTFNGFQRPTIYYVMSGPAWQLMQQFQNPDFPPEVEEQDASTLPVSCAWESGMKRHRAACASASINV
notes: Ornithine decarboxylase (EC 4.1.1.17), human; Homodimer without AZ (S about 6); dissociates to form a heterodimer with AZ; Gene sub-cloned into pQE30; also called ODC; source: E. coli JM109, purified (Ni-NTA Sepharose)
Regarding B1, in data set [17], the “stoichiometry N” value is 2.

The Kd is the free concentration of one partner at which half of the binding sites on the other are occupied at equilibrium, for simple one-to-one binding. In general, stoichiometry N refers to the number of molecules, sites or subunits per partner or assembly.

The record behind these values is paper PMC3084279, “Critical Factors Governing the Difference in Antizyme-Binding Affinities between Human Ornithine Decarboxylase and Antizyme Inhibitor” (PLoS ONE, 2011).
